The source of these data is the DeepSol protein solubility set.

The nature of the data set: soluble on expression in E. coli; label from the status in PepcDB or PDB records.
Consider “MVKAQLQKLIEQVATEHDLPERVVERALKNAIITAIRKEKKIRDELEVEFTDEGIKVYVVRRKGNKKFKFPLDISPEDLNRLAAYAAKEEFYKELERAEQERGYLEFKELEGEIVYGIVRKVLENGDVIVDLGRIDAILPKREQLPTDNFKTGDKVKALLLEVRKRRGEPVLILSRTHPNFLRKLLEQEVPEIKEGLVEIKAVARIPGERAKVAVEAKEMKMDPVGIVVGLKGMRIQKVSEELGGEKIDVIRWSDDIAELIKRALAPAHPEKIKLFPYEKRAEVAVPEEELSLAIGKKGINVKLASKLTGWHIDVLSTKDFEKLEELRKKEDEGQTS”, for which the “soluble on expression in E. coli” value is listed as “soluble”. The result for “AVKTYGMFIGTQFDSSKFLYSAFQAESNLGIWRFAHDKRPKKQSFCRTEKSRRIAIDIVQGWLAVDYDLVGDVRIIRSVLVVSSEPIQTDYTNFTGLTGKPMELSQLLTITQSQSSAKLVCSCFRVTDKQIHDAMEKQDCTSLTQLQNKLKCGTNCGSCISQIKQMVDSHQHQKGKQQASQQSLAIQIK” reads “not soluble”; that for “MSLKTMKFILACVLLLSPLLCQAQKNLFNKYNDMKGVSSVYISKAMMELNPNLFMKDLYIGKVAEHLNSVQVLSTHDNKVREEMAKDIRSLVQSSKYELLMKQKSTVSGSEVYVNRKGSKVKELIMVMNGASSLKFVYMEGDMTTDDIKKLMLYQSTSQNEGHHHHHH”, “not soluble”. As for “MGSDKIHHHHHHMSKLKDYNIDKVIIFNNLSTKTKNQLKEKVKLKRLQKKEILFYEKDSLDSVYILLEGKVSIFKISENGERKVIFILNSGEVINDITLDASKNSTVGCEAFENSIVAYYSIEEFLEIMQNDFQLTKDIISYMERRIRRLYRQLKNSISIKVDKKLAAKLYRLSREFGVCCGEWTLLNVNITVTYLADMLGCKRETVSRMIKVLQKEELIKIDNKGFYVKETELSRYFKNN”, the “soluble on expression in E. coli” value was “not soluble”. As for “MGSDKIHHHHHHMGEQQLDCALDLMRRLPPQHCDKNLTDLIDLCPHLVDDLLSTIDQPLKIAADRETGKQYLLCDYNRDGDSYRSPWSNTYDPPLEDGQLPSEKRRKMEIEANAAFESYRDLYFEGGVSSVYFWDLDNGGFAGIVLIKKEGDGAKNITGCWDSIHVIEITERARQAHYKLTSTIMLWLQTNKSSSGVMNLGGSLTRQHEMDAPINDQNTHLANMGRMIEDQESKMRLTINEIYFGKTKKVMSDLRSTEKQSELEKQDEIVRELNNAMANRGN”, the “soluble on expression in E. coli” value is recorded as “not soluble”.

For “NKNLWATIRGNFTYASSKFSKYEEPDYSATPWRSKIGTKLSQEFGLIAERLFVDEEDVANSPKQQFGEYMAGDIKYKDINHDGIIDEQDRVPIGYPTTPEIIYGFGFSIGYKDFDFNCFFQGSSRSSFFISPADISPFIQPNDPNNELGGKQATNALLQIVADDHWSEANQNMYAFWPRLSDTAISNNNQKSTWWLRDGTFLRMKSAEIGYTLPKRISSKAKLENFRIYVSGTNLFNISKFKTWDTEMGGNGLGYPVQRVFNIGVQLSL”, the “soluble on expression in E. coli” value is on record as “not soluble”. With “RSRGNFPIYNNTRVTYFPTGETFFDSLKEQLFLAKKYIFLEFFIIAEGQMWGEILSILEKKVSEGVEVRVLFDGMNELSTLSSDYAKRLEQIGIKAKSFLPISPFISTYYNYRDHRKIVVIDGEVSFTGGINLADEYINEVERFGHWKDAGLMLEGEATDSFLILFLQMWSITEKELIIDPYLSDHSLKLPSDGYVIPYGDSPLDTDKIGKNV”, the “soluble on expression in E. coli” value is given as “not soluble”. The result for “MIFAYNKEHVGDVLLVIVADDQGAENQVKRVGDVARVSLVEAPETVVAWNIFNASALLGDINGTGQVTLTDEQIEKVNTAIKDAGFSETLEKDDTPKIVVGFVKSCKKHPDSDHLSITQTEVDNGEILQIVCGAPNIKAGQKVVVAKPGAMMPDGLMIWPGVLRGEESFGMICSAKELRLPNAPAKKGILELPFDAEVGSAFAVGE” reads “not soluble”; that for “MTIRNFAIEYDAINDRNTFSNGDTLAGRVIVEVSKQTKITSLTVQAKGKANVAWTETHGEESVTYWDKEKYFSQTQSVLPEDKADGSVTLVAGRHVFPFAFQLPNQSLPSSFKGVHGKIHYRLMAKLSRSFRAASKAEAKFTFVARADYDTSTLTTPQHGSKDKNVMFFASGNISMDIFLPKTGYQQGEGLIVNGEIVNSSTRKIVPKYIIYQKQSFFAGGQRAVHTTEILKEKGEPLVSSTRENLYKVLPLPPEISSTIHNCRILKVEYRLKVILDVSFTKNPVIKLPFIVLPLCNETPPKAIEEGLYPDLAKMKISN”, “soluble”; that for “MADNINESEIIERLNSAPSVRGFFIATVDVFNESIDGLIQRIFRKDNFAVQSVVGPLLQDSGPLGDLSVRLKLLFGLGVLPDDIYHDIEDIIKLKNHLNSDASDYEFTDPNILEPIKKLHLVKKMGMVQLEVNEPDDDIDLEFYQLQLQRQQQIIKSGLSLAIVEICNELGKDSPF”, “not soluble”.

As for “RPQGLHLELETRLQKMYGIRQVIVVEATEPDDEESIKQAIGSAAAHYLETSLSAQDHIGISSWSSTIRAMVSHMHPQPGKQSAQEVVQLLGGVGNKGAFEATLLTQRLATLLNCPAFLLPSQSIEQSVESKQRIVEMEEVKEVLHRFDSITLAIVGIGELEPSQLLRNSGNYYTEDMLRVLAERGAVGDICLRYFDAQGKPVLEEDEEFVVSMGLGKLRSINRVLGLAGGVRKVQAIKGALLGGYLDVLITDVGTARGLGG”, the “soluble on expression in E. coli” value is recorded as “soluble”. Regarding “MGSDKIHHHHHHMTDLEHQVFTQVRAIIANEEQVIGRRGILIPLKKAIIADGDIRNVIDIVSSDPALAAHLLWRSNSAANASVSSKNRSLKDALVRLGQVNIYRYAFTFYLKERLDELPQPYKKLVYGYWALTESIATDAVDSLHHMEGVNINPDEVQTLALFSVFGEIIALTAFAYLNAESEQSFPLSIIKSLIDNQKQTLTLEAFESLGLDEELREEFMIAHNLRQTRNPDSPGLVLRRVLSMRNQLLNPL”, the “soluble on expression in E. coli” value was “not soluble”. The result for “MSLSWDQVWIDVNVATMDPSISAPYGAITNAAIAVKDGKIAWLGPRSELPAFDVLSIPVYRGKGGWITPGLIDAHTHLVFAGNRANEFELRLKGATYEEIARAGGGIISTVNACREADEAELFDLGRQRLNALAKEGVTTVEIKSGYGLDTETELKILRVARELGQHHHVDVKTTFLGAHAVPPEFKDNSDGYVDLIINKMLPAVIAENLADAVDVFCENIAFNLEQTERVLSTAKAAGLQVKLHAEQLSNMGGSELAARLGAKSVDHIEYLDEAGVKALSESGTCAVLLPGAFYFLRETQKPPIDLLRQYGVPMVLASDFNPGSSPICSTLLMLNMGCTLFRLTPEEALAGLTLNAAKALGIEDNVGSLVVGKQADFCLWDIATPAQLAYSYGVNPCKDVVKNGKLIHQEGHHHHHH” reads “soluble”; that for “SRAMPASLSTAALRSDNVSPVDPLGVQREFDHYVSVLRDRLGLQVVMLPADEELPDCVFVEDTAVVCGSTALITRPGAPSRRSETVAMKGALTELGLNIVEMNDESATMDGGDVLFTGKEFFVGLSKRTNQRGAEILANTFKDYAVSTIPVEEGLHLKSFCSMAGPNLIAIGSSDAAQKALKVIQQMSDCKYEKLTVPDDRAANCVYMNLPGKGDVLLHCTPEVFPESAKVFERLKSHMLIPVSNQEKMKVDGALTCLSVLLRI”, “soluble”; that for “AALVSISVSPTNSTVAKGLQENFKATGIFTDNSNSDITDQVTWDSSNTDILSISNASDSHGLASTLNQGNVKVTASIGGIQGSTDFKVTQAALTSIEVSPTRTSIAKGLTQKFTAIGIFTDNSKKDITDQVTWNSSSAIVSVSNLDNNKGLGKTNSVGNTTITATLGKVSGNTWFTVVPAVLTSIQINPVNPSLAKGLTQKFTATGIYSDNSNKDITSAVTWFSSDSSIATISNAQKNQGNAYGAATGATDIKATFGKVSSPVSTLSVTAAKLVEIQITPAAASKAKGLTERFKATGIFTDNSNSDITNQVTWNSSNTDIAEIKNTSGSKGITNTLTPGSSEISAALGSIKSSKVILKV”, “not soluble”.

Take “MTHATVTQTVHYHNGETGGQMQADTTNEVNFDRTVTIDTVTGEITHYGDWEADGDDYFKGFDSPTFDGYFADVQHTGEVKGVDPEQGTVDDVTITYYALEHHHHHH”: the “soluble on expression in E. coli” value is given as “soluble”. The result for “MRGSHHHHHHGSASFLKKTMPFKTTIEGTVNGHYFKCTGKGEGNPFEGTQEMKIEVIEGGPLPFAFHILSTSCMYGSKTFIKYVSGIPDYFKQSFPEGFTWERTTTYEDGGFLTAHQDTSLDGDCLVYKVKILGNNFPADGPVMQNKAGRWEPGTEIVYEVDGVLRGQSLMALKCPGGRHLTCHLHTTYRSKKPASALKMPGFHFEDHRIEIMEEVEKGKCYKQYEAAVGRYCDAAPSKLGHN” reads “soluble”; that for “MKNIYVETYGCALNRADTYVMMTLLKSEGYNFVENPENADIIILNTCAVRLETEERMKQRIKELNTLSKKLVVAGCMSSAEPATVLSIAPNASLIGPQSVERIVDIVKSEERKIVIEGDRALITPRTFDGKIAIIPVADGCAGNCSFCITKLARRKLRSYPLREIVNAARDAIQSGAREIELTGQDTAAYGLDLGGSISLVDVVNKVADIDGDFMIRIGMMTPEQAMRIMDDLIEAIRNPKVYKFIHLPVQSGDDRVLKLMNRKYTVDEYKELISEIRHKIPFVNITTDIIVGHPGEDEEAFNNTLLLMKELRFERIHLAMYSIRPNTRSASMPQVPDSIKKKRIQIANKLYEDLALSIHLDYVGSTSRVITTELGRKGSVIGRLMNYIPVVIRSENVELGKWYDVKITEASFYDLRGILALEHHHHHH”, “soluble”.

Regarding “AETSSATTAQQMPSLAPMLEKVMPSVVSINVEGSTTVNTPRMPRNFQQFFGDDSPFCQEGSPFQSSPFCQGGQGGNGGGQQQKFMALGSGVIIDADKGYVVTNNHVVDNATVIKVQLSDGRKFDAKMVGKDPRSDIALIQIQNPKNLTAIKMADSDALRVGDYTVAIGNPFGLGETVTSGIVSALGRSGLNAENYENFIQTDAAINRGNSGGALVNLNGELIGINTAILAPDGGNIGIGFAIPSNMVKNLTSQMVEYGQVKRGELGIMGTELNSELAKAMKVDAQRGAFVSQVLPNSSAAKAGIKAGDVITSLNGKPISSFAALRAQVGTMPVGSKLTLGLLRDGKQVNVNLELQQSSQNQVDSSSIFNGIEGAEMSNKGKDQGVVVNNVKTGTPAAQIGLKKGDVIIGANQQAVKNIAELRKVLDSKPSVLALNIQRGDSTIYLLMQ”, the “soluble on expression in E. coli” value is on record as “soluble”. As to “GPGSMMEYADAYVGGGGRLRPGAQGSTTATGASRPYLEQRTVAPVTSALGQELDRLVGGTLAAQEYRDRLEALTRSVQASDEKVLNLTRLVKLSQSIQEEKEADLRRQNDELRARLKRQEQLTAQLQRQLEGMQGAVDAQALHHVVERLEGQMSACRGKQEEQWVAVQQRIGELEDRLQRASTCTAERCEERLMQLDERLQQVTQSTADATNQWAKRNFVRFKEQVDSLRADLDDVRGGQKELKSTVQSASCRAEIEYKKVLLLLQQKTKEADALTSLVEKELQHLQKVAHRHQILASKDITPAFEFDEKPYDALKFAAGEGKRRGAEAAAERRRR”, the “soluble on expression in E. coli” value was “not soluble”. The result for “MQQKLENIKFVITDVDGVLTDGQLHYDANGEAIKSFHVRDGLGIKMLMDADIQVAVLSGRDSPILRRRIADLGIKLFFLGKLEKETACFDLMKQAGVTAEQTAYIGDDSVDLPAFAACGTSFAVADAPIYVKNAVDHVLSTHGGKGAFREMSDMILQAQGKSSVFDTAQGFLKSVKSMGQLEHHHHHH” reads “soluble”.
